In the RNAGym collection of RNA variant scans (doi:10.7554/elife.80360):

B1: Twister Ribozyme (parent)
chain: AACACUGCCAAUGCCGGUCCCAAGCCCGGAUAAAAGUGGAGGGGGCGG

Variants of: B1
Assay: self-cleavage, relative activity (ratio to wild type); higher = more cleavage; co-transcriptional

Point of comparison: C21U G44U, self-cleavage 0.0882. Against it:
- A22U A40U — higher, 0.128
- C21U C26A — lower, 0.0796
- A22G U37A — higher, 0.152
- A22G U37G — lower, 0.0844
- A22C A33C — higher, 0.955
- A22C A33U — higher, 0.983
- A22G G45A — higher, 0.277
- A22G G45U — higher, 0.143
- A22C G29C — higher, 0.929
- C21U G39C — higher, 0.114
- C21U G39U — lower, 0.0656
- A22C U37C — higher, 0.624
- A22G G38C — higher, 0.0945
- C21U A32G — lower, 0.0636
- A22C C46A — higher, 1.02
- A22C C46U — higher, 0.832
- A22C C46G — higher, 0.869
- A22C A40G — higher, 0.128
- A22C G45A — higher, 0.927
- C21U C46A — higher, 0.107
- C21U C46G — higher, 0.135
- A22U C27G — lower, 0.0668
- A22U C27U — higher, 0.692
- A22U G38C — higher, 0.779
- C21G G36C — lower, 0.0148
- A22G G42U — lower, 0.0653
- A22U G39U — lower, 0.0706
- A22U G39C — higher, 0.115
- A22G G44C — higher, 0.225
- A22G G44U — higher, 0.243
- A22G G44A — higher, 0.315
- A22U G47A — higher, 0.582
- A22U G47C — higher, 0.216
- A22U U31C — higher, 0.935
- A22G A34G — higher, 0.0987
- A22G A34U — higher, 0.096
- A22U C25U — higher, 0.513
- A22U G42A — higher, 0.126
- A22C G43U — higher, 0.273
- A22U A34G — higher, 0.535
- C21U G38C — lower, 0.0755
- C21U G38A — lower, 0.0657
- A22G A40U — higher, 0.138
- A22G A40G — higher, 0.588
- A22G A40C — higher, 0.11
- C21G G43A — lower, 0.0243
- C21G G43U — higher, 0.0954
- A22C A30U — higher, 1
- A22U U37A — higher, 0.256
- A22U G43C — higher, 0.129
- C21U A40C — higher, 0.109
- C21U A40U — lower, 0.0831
- C21U A40G — lower, 0.0774
- A22C A35U — higher, 0.962
- A22G A30C — higher, 0.111
- C21U C25A — lower, 0.061
- C21U C25G — higher, 0.0992
- A22C C27U — higher, 0.901
- C21U U31G — higher, 0.115
- A22G C25U — higher, 0.131
- A22U G36U — lower, 0.074
- C21U G41C — higher, 0.434
- C21U G41A — higher, 0.641
- C21U G41U — higher, 0.136
- C21U G43U — higher, 0.106
- A22U — higher, 0.879
- A22G — higher, 0.368
- A22C — higher, 1.02
- C21U A35C — higher, 0.154
- C21U A35G — higher, 0.108
- A22U G44U — higher, 0.812
- A22U G44C — higher, 0.836
- A22G G24C — higher, 0.0998
- C21U U37A — lower, 0.0811
- C21G G38A — higher, 0.11
- C21G G29A — lower, 0.0338
- A22C G41U — higher, 0.366
- A22C G41A — higher, 0.326
- A22U G48U — higher, 0.911
- A22U G48C — higher, 0.954
- A22U G48A — higher, 0.666
- C21U G24C — higher, 0.0925
- C21U G24U — higher, 0.106
- C21U G47U — higher, 0.109
- C21U G29U — lower, 0.0831
- A22G A23G — lower, 0.0844
- A22C G36U — higher, 0.204
- A22U A23G — lower, 0.0873
- A22C C25A — higher, 0.12
- A22C C25U — higher, 0.948
- A22C C25G — higher, 0.222
- C21U A33G — higher, 0.146
- C21G G42C — higher, 0.13
- C21G G42A — higher, 0.0891
- A22U C26U — higher, 0.103
- A22U C26A — higher, 0.11
- C21U C27G — lower, 0.0722
- A22U A33U — higher, 0.698
- A22U A33C — higher, 0.737
- C21U A22C — higher, 0.0923
- C21U A22G — lower, 0.0633
- A22G G29U — higher, 0.183
- A22G A32C — higher, 0.35
- A22G A32U — higher, 0.278
- A22C A23G — higher, 0.341
- A22C A23C — higher, 0.148
- C21U G42C — higher, 0.118
- A22U G41A — higher, 0.102
- A22U G41C — higher, 0.142
- A22G G39C — lower, 0.0779
- A22C G28A — higher, 0.862
- A22C G28C — higher, 0.955
- A22C G28U — higher, 0.937
- C21U A34C — lower, 0.0844
- A22U A30G — higher, 0.783
- A22U A30U — higher, 0.999
- A22G U31C — higher, 0.304
- A22G U31A — higher, 0.196
- A22U G24A — lower, 0.0776
- C21U G28U — higher, 0.102
- A22G A33G — higher, 0.255
- A22G A33U — higher, 0.237
- A22G C26A — higher, 0.0908
- A22G C26G — lower, 0.0488
- A22C G42C — higher, 0.237
- A22C G42A — higher, 0.215
- C21G G24U — higher, 0.0976
- C21G G24C — higher, 0.109
- A22U G29U — higher, 0.66
- C21G G39U — lower, 0.0469
- A22C G38A — higher, 0.894
- A22C G38C — higher, 0.976
- A22C G38U — higher, 0.782
- C21G G41A — higher, 0.159
- A22C G39C — higher, 0.161
- A22C G39U — higher, 0.111
- A22G C27A — higher, 0.0974
- C21G G48A — higher, 0.146
- C21U G45U — higher, 0.118
- A22U C46U — higher, 0.773
- A22G G41A — higher, 0.0888
- A22G G41U — higher, 0.119
- C21G U37G — lower, 0.083
- A22C C26A — higher, 0.46
- A22U G45A — higher, 0.678
- C21U A23U — lower, 0.0638
- C21U A23G — lower, 0.0801
- C21U A23C — lower, 0.0826
- A22U A35G — higher, 0.583
- A22C G44A — higher, 0.914
- A22G A35G — higher, 0.138
- A22C G47U — higher, 0.917
- A22C G47A — higher, 0.909
- C21U A30G — higher, 0.097
- C21G G47C — lower, 0.0639
- C21U G36U — lower, 0.0467
- A22U G28A — higher, 0.485
- A22U G28U — higher, 0.736
- A22G G43A — higher, 0.0968
- A22C U31G — higher, 0.987
- A22G G36A — lower, 0.0781
- A22G G36U — higher, 0.105
- C21G U31G — lower, 0.0712
- A22G C46U — higher, 0.286
- A22G G48A — higher, 0.246
- A22G G48C — higher, 0.318
